From patent US20100003232

Columns and labels:
[1] = target: Aβ produced naturally by APPswe.3 cells (secreted Aβ in conditioned medium) (UniProt P05067)
Human insulin = Human insulin (UniProt P01308)
amyloid-β peptide (1-42) = amyloid-β peptide (1-42) (UniProt P05067)
[2] = target: secreted ectodomain of the amyloid precursor protein derivative generated by α-secretase (APPsα) (UniProt P05067)
β-Amyloid (1-40) = β-Amyloid (1-40) (UniProt P05067)

Sequence of UniProt P01308 (P01308 whole entry, looked up): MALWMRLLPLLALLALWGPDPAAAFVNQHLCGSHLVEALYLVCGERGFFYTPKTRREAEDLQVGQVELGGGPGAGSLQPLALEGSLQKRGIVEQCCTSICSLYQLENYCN

Substance | t½ for the degradation of secreted Aβ [1] | degradation followed by MALDI-TOF (Human insulin) | degradation followed by MALDI-TOF (amyloid-β peptide (1-42)) | degradation in conditioned medium (Western blot) [2] | Hill coefficient (β-Amyloid (1-40)) | Kcat (β-Amyloid (1-40)) | Km (β-Amyloid (1-40))
IDE D426C/K899C double cysteine mutant | that by the IDE D426C/K899C mutant was 2 minutes | all three double cysteine IDE mutants degraded both insulin and Aβ(1-42) more effectively than wild-type IDE | all three double cysteine IDE mutants degraded both insulin and Aβ(1-42) more effectively than wild-type IDE | IDE had no effect on the secreted ectodomain of the amyloid precursor protein derivative generated by α-secretase (APPsα) | 2.3 | 20 s⁻¹ | 
wild type human insulin-degrading enzyme (IDE) | The estimated t½ for the degradation of secreted Aβ by wild-type IDE was 11 minutes |  |  | IDE had no effect on the secreted ectodomain of the amyloid precursor protein derivative generated by α-secretase (APPsα) | 2.9 | 8 s⁻¹ | 25 µM
